T1: FH-DHX36 (RHAU, G4R1) (human (expressed in HEK293 T-REx Flp-In …, UniProt Q9H2U1 1-1008))
T1 sequence: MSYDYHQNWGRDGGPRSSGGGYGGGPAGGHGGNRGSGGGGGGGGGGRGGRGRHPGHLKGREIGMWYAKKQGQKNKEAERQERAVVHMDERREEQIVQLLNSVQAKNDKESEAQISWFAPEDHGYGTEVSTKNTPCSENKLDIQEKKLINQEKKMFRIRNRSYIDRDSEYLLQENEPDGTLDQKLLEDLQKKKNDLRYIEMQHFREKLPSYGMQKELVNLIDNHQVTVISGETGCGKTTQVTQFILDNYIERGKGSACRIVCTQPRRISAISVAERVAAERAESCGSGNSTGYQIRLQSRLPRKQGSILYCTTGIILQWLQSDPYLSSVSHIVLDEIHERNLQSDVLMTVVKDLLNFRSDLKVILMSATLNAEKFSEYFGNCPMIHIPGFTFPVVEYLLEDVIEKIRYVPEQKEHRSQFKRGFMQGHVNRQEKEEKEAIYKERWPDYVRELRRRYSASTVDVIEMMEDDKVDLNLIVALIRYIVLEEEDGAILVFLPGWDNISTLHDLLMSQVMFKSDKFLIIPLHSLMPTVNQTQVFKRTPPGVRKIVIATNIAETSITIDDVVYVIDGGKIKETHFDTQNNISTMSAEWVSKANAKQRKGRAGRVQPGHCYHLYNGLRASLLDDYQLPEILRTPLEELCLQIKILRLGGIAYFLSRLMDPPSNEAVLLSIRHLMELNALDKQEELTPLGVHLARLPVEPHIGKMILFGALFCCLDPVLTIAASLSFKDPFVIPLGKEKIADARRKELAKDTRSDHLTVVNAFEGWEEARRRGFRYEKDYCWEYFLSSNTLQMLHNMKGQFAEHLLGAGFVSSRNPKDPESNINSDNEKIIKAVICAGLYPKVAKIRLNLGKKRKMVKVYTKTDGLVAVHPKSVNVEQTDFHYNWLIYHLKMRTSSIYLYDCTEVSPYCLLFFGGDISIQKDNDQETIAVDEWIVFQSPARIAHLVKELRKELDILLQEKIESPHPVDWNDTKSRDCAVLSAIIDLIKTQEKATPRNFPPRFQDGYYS

B1: mutated DHX36 RRE for MST (ssDNA)
DNA: AAAAAGCAGCAGGAGCAGCA
B2: DHX36 RRE for MST (G-rich PAR-CLIP motif) (structured_DNA)
DNA: AAAAAGGAGGAGGAGGAGGA

Target: T1, FH-DHX36 (RHAU, G4R1)
Assay: MST; 25 nM oligonucleotide, DHX36 up to 50 nM; MST: 1x MST buffer (composition not stated), 0.5% BSA, 5 mM DTT; 25 nM Cy5 oligo (folding buffer for CD oligos: 10 mM Tris pH 7.5, 100 mM KCl, 1 mM EDTA); temperature not stated
Conditions: protein: recombinant, tags: N-terminal FLAG-HA (pFRT-FlagHA vector), label: 5'-Cy5

Row | Binder | binding result (no G4 signature (CD on the longer A10 version)) | binding result (parallel G4 (CD on the longer A10 version))
1 | B1 | no binding | 
2 | B2 |  | binds
